Consider one substance from US20230395187A1.

In the assay the target is SARS-CoV-2 spike protein, delta (SARS-CoV-2) (UniProt P0DTC2). Briefly: virus-free Luminex binding assay, spike on beads.

What is called EC50 is the concentration giving half of the maximal effect. A low value points to higher potency in that assay. Imdevimab (RGN87) (antibody) returned an EC50 of 0.17 µg/mL.
